Experimental data published in US20110263454A1, “Methods of Identifying Functional Characteristics of Promoters, Transcription Modifying Proteins and Transcription Modulating Agents” (Salk Institute for Biological Studies, priority 2008, published 2011).

B1: hMR: Mineralocorticoid Receptor (NR3C2, MR), cDNA driver (protein, UniProt P08235 1-984, looked up)
Mineralocorticoid receptor: METKGYHSLPEGLDMERRWGQVSQAVERSSLGPTERTDENNYMEIVNVSCVSGAIPNNSTQGSSKEKQELLPCLQQDNNRPGILTSDIKTELESKELSATVAESMGLYMDSVRDADYSYEQQNQQGSMSPAKIYQNVEQLVKFYKGNGHRPSTLSCVNTPLRSFMSDSGSSVNGGVMRAVVKSPIMCHEKSPSVCSPLNMTSSVCSPAGINSVSSTTASFGSFPVHSPITQGTPLTCSPNVENRGSRSHSPAHASNVGSPLSSPLSSMKSSISSPPSHCSVKSPVSSPNNVTLRSSVSSPANINNSRCSVSSPSNTNNRSTLSSPAASTVGSICSPVNNAFSYTASGTSAGSSTLRDVVPSPDTQEKGAQEVPFPKTEEVESAISNGVTGQLNIVQYIKPEPDGAFSSSCLGGNSKINSDSSFSVPIKQESTKHSCSGTSFKGNPTVNPFPFMDGSYFSFMDDKDYYSLSGILGPPVPGFDGNCEGSGFPVGIKQEPDDGSYYPEASIPSSAIVGVNSGGQSFHYRIGAQGTISLSRSARDQSFQHLSSFPPVNTLVESWKSHGDLSSRRSDGYPVLEYIPENVSSSTLRSVSTGSSRPSKICLVCGDEASGCHYGVVTCGSCKVFFKRAVEGQHNYLCAGRNDCIIDKIRRKNCPACRLQKCLQAGMNLGARKSKKLGKLKGIHEEQPQQQQPPPPPPPPQSPEEGTTYIAPAKEPSVNTALVPQLSTISRALTPSPVMVLENIEPEIVYAGYDSSKPDTAENLLSTLNRLAGKQMIQVVKWAKVLPGFKNLPLEDQITLIQYSWMCLSSFALSWRSYKHTNSQFLYFAPDLVFNEEKMHQSAMYELCQGMHQISLQFVRLQLTFEEYTIMKVLLLLSTIPKDGLKSQAAFEEMRTNYIKELRKMVTKCPNNSGQSWQRFYQLTKLLDSMHDLVSDLLEFCFYTFRESHALKVEFPAMLVEIISDQLPKVESGNAKPLYFHRK
B2: NR4a3: NR4a3 (NR4A3; NOR1), nuclear hormone receptor cDNA driver (protein, UniProt Q92570 1-626, looked up)
Nuclear receptor subfamily 4 …: MPCVQAQYSPSPPGSSYAAQTYSSEYTTEIMNPDYTKLTMDLGSTEITATATTSLPSISTFVEGYSSNYELKPSCVYQMQRPLIKVEEGRAPSYHHHHHHHHHHHHHHQQQHQQPSIPPASSPEDEVLPSTSMYFKQSPPSTPTTPAFPPQAGALWDEALPSAPGCIAPGPLLDPPMKAVPTVAGARFPLFHFKPSPPHPPAPSPAGGHHLGYDPTAAAALSLPLGAAAAAGSQAAALESHPYGLPLAKRAAPLAFPPLGLTPSPTASSLLGESPSLPSPPSRSSSSGEGTCAVCGDNAACQHYGVRTCEGCKGFFKRTVQKNAKYVCLANKNCPVDKRRRNRCQYCRFQKCLSVGMVKEVVRTDSLKGRRGRLPSKPKSPLQQEPSQPSPPSPPICMMNALVRALTDSTPRDLDYSRYCPTDQAAAGTDAEHVQQFYNLLTASIDVSRSWAEKIPGFTDLPKEDQTLLIESAFLELFVLRLSIRSNTAEDKFVFCNGLVLHRLQCLRGFGEWLDSIKDFSLNLQSLNLDIQALACLSALSMITERHGLKEPKRVEELCNKITSSLKDHQSKGQALEPTESKVLGALVELRKICTLGLQRIFYLKLEDLVSPPSIIDKLFLDTLPF
B3: PR: Progesterone Receptor (NR3C3), cDNA driver (protein, UniProt P06401 1-933, looked up)
Progesterone receptor: MTELKAKGPRAPHVAGGPPSPEVGSPLLCRPAAGPFPGSQTSDTLPEVSAIPISLDGLLFPRPCQGQDPSDEKTQDQQSLSDVEGAYSRAEATRGAGGSSSSPPEKDSGLLDSVLDTLLAPSGPGQSQPSPPACEVTSSWCLFGPELPEDPPAAPATQRVLSPLMSRSGCKVGDSSGTAAAHKVLPRGLSPARQLLLPASESPHWSGAPVKPSPQAAAVEVEEEDGSESEESAGPLLKGKPRALGGAAAGGGAAAVPPGAAAGGVALVPKEDSRFSAPRVALVEQDAPMAPGRSPLATTVMDFIHVPILPLNHALLAARTRQLLEDESYDGGAGAASAFAPPRSSPCASSTPVAVGDFPDCAYPPDAEPKDDAYPLYSDFQPPALKIKEEEEGAEASARSPRSYLVAGANPAAFPDFPLGPPPPLPPRATPSRPGEAAVTAAPASASVSSASSSGSTLECILYKAEGAPPQQGPFAPPPCKAPGASGCLLPRDGLPSTSASAAAAGAAPALYPALGLNGLPQLGYQAAVLKEGLPQVYPPYLNYLRPDSEASQSPQYSFESLPQKICLICGDEASGCHYGVLTCGSCKVFFKRAMEGQHNYLCAGRNDCIVDKIRRKNCPACRLRKCCQAGMVLGGRKFKKFNKVRVVRALDAVALPQPVGVPNESQALSQRFTFSPGQDIQLIPPLINLLMSIEPDVIYAGHDNTKPDTSSSLLTSLNQLGERQLLSVVKWSKSLPGFRNLHIDDQITLIQYSWMSLMVFGLGWRSYKHVSGQMLYFAPDLILNEQRMKESSFYSLCLTMWQIPQEFVKLQVSQEEFLCMKVLLLLNTIPLEGLRSQTQFEEMRSSYIRELIKAIGLRQKGVVSSSQRFYQLTKLLDNLHDLVKQLHLYCLNTFIQSRALSVEFPEMMSEVIAAQLPKILAGMVKPLLFHKK
B4: NR4a2: NR4a2 (NR4A2; NURR1), nuclear hormone receptor cDNA driver (protein, UniProt P43354 1-598, looked up)
Nuclear receptor subfamily 4 …: MPCVQAQYGSSPQGASPASQSYSYHSSGEYSSDFLTPEFVKFSMDLTNTEITATTSLPSFSTFMDNYSTGYDVKPPCLYQMPLSGQQSSIKVEDIQMHNYQQHSHLPPQSEEMMPHSGSVYYKPSSPPTPTTPGFQVQHSPMWDDPGSLHNFHQNYVATTHMIEQRKTPVSRLSLFSFKQSPPGTPVSSCQMRFDGPLHVPMNPEPAGSHHVVDGQTFAVPNPIRKPASMGFPGLQIGHASQLLDTQVPSPPSRGSPSNEGLCAVCGDNAACQHYGVRTCEGCKGFFKRTVQKNAKYVCLANKNCPVDKRRRNRCQYCRFQKCLAVGMVKEVVRTDSLKGRRGRLPSKPKSPQEPSPPSPPVSLISALVRAHVDSNPAMTSLDYSRFQANPDYQMSGDDTQHIQQFYDLLTGSMEIIRGWAEKIPGFADLPKADQDLLFESAFLELFVLRLAYRSNPVEGKLIFCNGVVLHRLQCVRGFGEWIDSIVEFSSNLQNMNIDISAFSCIAALAMVTERHGLKEPKRVEELQNKIVNCLKDHVTFNNGGLNRPNYLSKLLGKLPELRTLCTQGLQRIFYLKLEDLVPPPAIIDKLFLDTLPF

Legend:
hPOMC promoter = experiment: NHR-promoter luciferase screen, hPOMC promoter; assay type: cell-based, human; conditions: for Normalized Luc. act., normalized to control / Luc. act., normalized to lacZ: hPOMC promoter, HR/ligand component; for hPOMC promoter reporter activity: transcription factor +/- ligand, control = 1.00
Summary of the method: (§1)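 CV-1 cells were co-transfected with 50 ng NHR (homodimer or NHR/RXR heterodimer), 100 ng promoter-luciferase construct and 50 ng LacZ. Luciferase was normalized to LacZ and to a no-NHR/no-ligand control.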

mNPY promoter = experiment: NHR-promoter luciferase screen, mNPY promoter; assay type: cell-based, mouse; conditions: for Results of assays of transcription factor (+/- ligand) with mNPY: Table 6d, luciferase activity relative to control (control = 1.00); for Luc. act., normalized to lacZ / Normalized Luc. act., normalized to control: mNPY promoter, HR component with or without ligand; for Normalized Luc. act., normalized to control: relative to control
Summary of the method: as §1

hMDR1 promoter = experiment: NHR-promoter luciferase screen, hMDR1 promoter; assay type: cell-based, human; conditions: for Luc. act., normalized to lacZ / Normalized Luc. act., normalized to control: MDR1 promoter, HR/ligand component; for hMDR1 promoter reporter activity: transcription factor +/- ligand, control = 1.00
Summary of the method: as §1

hCYP3A4 promoter = experiment: NHR-promoter luciferase screen, hCYP3A4 promoter; assay type: cell-based, human; conditions: for Luc. act., normalized to lacZ / Normalized Luc. act., normalized to control: CYP3A4 promoter, HR/ligand component; for hCYP3A4 promoter reporter activity: transcription factor +/- ligand, control = 1.00
Summary of the method: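 CV-1 cells co-transfected with NHR homodimer or NHR/RXR heterodimer (pcDNA3.1, C-terminal V5H6 tag), promoter-luciferase construct and LacZ transfection control. Orphan receptors screened without ligand. Luciferase normalized to LacZ and to no-NHR/no-ligand control.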

RevErba promoter = experiment: NHR-promoter luciferase screen, RevErba (RVRa) promoter; assay type: cell-based; parameters: key to mRevErba promoter reporter activity / Normalized Luc. act., normalized to control: luciferase activity normalized to lacZ and to control (no NHR/ligand); conditions: for Luc. act., normalized to lacZ / Normalized Luc. act., normalized to control / negative reciprocal of normalized Luc. act. (fold repression; Table 33) / normalized Luc. act. on a logarithmic scale (column without head, Table 33): RVRa promoter; for Luc. act., normalized to lacZ / Normalized Luc. act., normalized to control: HR component without or with ligand; for negative reciprocal of normalized Luc. act. (fold repression; Table 33): given only where activity is below control; for normalized Luc. act. on a logarithmic scale (column without head, Table 33): log10 of activity normalized to control; for mRevErba promoter reporter activity: transcription factor +/- ligand, control = 1.00
Summary of the method: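 CV-1 cells co-transfected with NHR (pcDNA3.1, C-terminal V5H6 tag) as homodimer or RXR heterodimer, RevErbα promoter–luciferase reporter and LacZ transfection control; ligand added where applicable. Luciferase normalized to LacZ and to no-NHR/no-ligand control.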

Row | Molecule | Normalized Luc. act., normalized to control (hPOMC promoter) | hPOMC promoter reporter activity (hPOMC promoter) | Results of assays of transcription factor (+/- ligand) with mNPY (mNPY promoter) | Luc. act., normalized to lacZ (mNPY promoter) | Normalized Luc. act., normalized to control (mNPY promoter) | Luc. act., normalized to lacZ (hMDR1 promoter) | Normalized Luc. act., normalized to control (hMDR1 promoter) | hMDR1 promoter reporter activity (hMDR1 promoter) | Luc. act., normalized to lacZ (hCYP3A4 promoter) | Normalized Luc. act., normalized to control (hCYP3A4 promoter) | hCYP3A4 promoter reporter activity (hCYP3A4 promoter) | Luc. act., normalized to lacZ (RevErba promoter) | Normalized Luc. act., normalized to control (RevErba promoter) | negative reciprocal of normalized Luc. act. (fold repression; Table 33) (RevErba promoter) | normalized Luc. act. on a logarithmic scale (column without head, Table 33) (RevErba promoter) | mRevErba promoter reporter activity (RevErba promoter) | Luc. act., normalized to lacZ (hPOMC promoter)
1 | B1 | 0.0 | 0.00 | 0.58 | 48.9 | 0.6 | 0.1 | 0.3 | 0.34 | 2.6 | 0.6 | 0.58 | 13.7 | 0.5 | −2.036 | −0.31 | 0.49 | 
2 | B2 | 0.6 | 0.63 | 0.72 | 60.4 | 0.7 | 0.2 | 0.7 | 0.65 | 4.2 | 0.9 | 0.93 | 14.7 | 0.5 | −1.9 | −0.28 | 0.53 | 2.7
3 | B3 | 0.7 | 0.75 | 1.09 | 91.7 | 1.1 | 0.4 | 1.3 | 1.35 | 6.5 | 1.5 | 1.47 | 24.1 | 0.9 | −1.16 | −0.06 | 0.86 | 3.2
4 | B4 | 0.5 | 0.49 | 0.72 | 60.4 | 0.7 | 0.2 | 0.7 | 0.74 | 3.5 | 0.8 | 0.79 | 20.6 | 0.7 | −1.357 | −0.13 | 0.74 | 2.1
